The values that follow come from patent US20120225060A1 (APEXIGEN, published 2012).

Numbering of substitutions follows the chain as printed.

T1: IL-6R on human myeloma U266B1 cells (human, UniProt P08887 20-468)
T1 construct: whole, on cells; Also used as target of the cell-based functional assays (TF-1 proliferation); also called IL-6R on U266B1 cells expressing IL-6R; cell-surface IL-6R
T1 sequence (looked up): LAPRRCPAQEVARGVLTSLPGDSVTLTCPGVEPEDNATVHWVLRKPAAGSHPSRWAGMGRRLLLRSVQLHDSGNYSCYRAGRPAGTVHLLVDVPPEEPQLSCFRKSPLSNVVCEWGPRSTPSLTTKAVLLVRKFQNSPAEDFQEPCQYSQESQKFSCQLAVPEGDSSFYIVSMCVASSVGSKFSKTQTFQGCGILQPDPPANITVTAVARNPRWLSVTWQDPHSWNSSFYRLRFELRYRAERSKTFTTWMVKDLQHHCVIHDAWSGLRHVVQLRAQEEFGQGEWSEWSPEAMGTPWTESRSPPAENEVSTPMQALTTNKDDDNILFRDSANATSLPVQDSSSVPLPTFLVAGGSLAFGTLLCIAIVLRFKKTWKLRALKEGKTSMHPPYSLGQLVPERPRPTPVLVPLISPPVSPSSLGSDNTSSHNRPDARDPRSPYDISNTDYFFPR

T2: recombinant human IL-6R-extracellular domain (ECD) (human, UniProt P08887 20-365)
T2 construct: extracellular domain; also called IL-6R-ECD
T2 sequence (looked up): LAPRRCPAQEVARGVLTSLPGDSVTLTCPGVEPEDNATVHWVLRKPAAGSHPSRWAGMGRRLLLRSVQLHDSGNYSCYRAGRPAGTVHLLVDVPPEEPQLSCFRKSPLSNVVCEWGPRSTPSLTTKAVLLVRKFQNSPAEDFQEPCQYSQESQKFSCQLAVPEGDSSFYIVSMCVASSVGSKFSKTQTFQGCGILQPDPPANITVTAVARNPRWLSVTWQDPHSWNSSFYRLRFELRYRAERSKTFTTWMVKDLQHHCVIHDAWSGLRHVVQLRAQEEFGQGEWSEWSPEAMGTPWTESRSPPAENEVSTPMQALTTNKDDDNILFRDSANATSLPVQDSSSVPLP

B1: clone 51 rabbit anti-IL-6R antibody (antibody, V domains shown)
VH: QSVEESGGRLVTPGTPLTLTCTASGFDISSYSLQWVRQSPGKGLEYIGFIRPDGSAHYATWAKGRFTISKTSSTTVDLKMTSLTTEDTATYFCARDDISSDYFPNLWGPGTLVTVSS
VL: QVLTQTPSPVSAAVGGTVTISCQASESVYNKNNLAWYQQKPGQPPKLLIYDASDLASGVSSRFKGSGSGTQFTLTISDLECADAATYYCAGGGSGNVYDFGGGTEVVVK
B2: clone 42 rabbit anti-IL-6R antibody (antibody, V domains shown)
VH: QSVEESGGRLVTPGTPLTLTCTVSGFSLSNYWMSWVRQAPGKGLEWIAFIGGGNTFYASWAKGRFTISKTSSTTVDLSMPSPTTEDTATYFCARGYGAPGYDLWGQGTLVTVSL
VL: AIVMTQTPSSKSVPVGDTVTINCQASESVYTNNRLSWYQQKPGQPPKLLIYYASTLASGVPSRFKGSGSGTQFTLTISDVVCDNAATYYCVGYKSSDGDGTAFGGGTEVVVK
B3: clone 40 rabbit anti-IL-6R antibody (antibody, V domains shown)
VH: QSLEESGGRLVSPGGSLTLTCTVSGVDLNTYAMGWVRQAPGKGLECIGVILGSGTTYYANWAKGRFTISKTSSTTVDLKMTNLTAADTATYFCAGDRYGSLEEVITPYFDLWGPGILVTVSS
VL: DVVMTQTPASVEAAVGGTVTIKCQASQNIYNNLAWYQQKPAQPPKLLIYSASTLESGVPSRFKGSGSGTGYTLTISDLECADAATYYCQSAYYTSYIDHNVFGGGTEVVVE
B4: clone 5 rabbit anti-IL-6R antibody (antibody, V domains shown)
VH: QSLEESGGRLVTPGTPLTLTCTVSGIDLSRYWMSWVRQAPGKGLEWIGMISGGNTWYASWAKGRFTISKTSTTVDLKITSPTTEDTATYFCARGIDTGIATTFNLWGPGTLVTVSS
VL: AQVLTQTPSSVSAAVGGTVTISCQSSQSVYNNNRLSWFQQKPGQPPKLLIYYASTLASGVPSRFKGSGSGTQFTLTISDLECDDAATYYCQGYYSGVINVFGGGTEVVVK
B5: clone 37 rabbit anti-IL-6R antibody (antibody, V domains shown)
VH: B4 VH with K69G, T79I, E84A
VL: B4 VL with N31S, A53T
B6: clone 23 rabbit anti-IL-6R antibody (antibody, V domains shown)
VH: B4 VH
VL: B4 VL with A13T, S28N, A53T, A57P
B7: clone 21 rabbit anti-IL-6R antibody (antibody, V domains shown)
VH: QSVEESGGRLVTPGTPLTLTCTVSGIDLSNYYMSWVRQAPGKGLEWIGISSTTSNTFYASWAKGRFTISKTSATVDLKITSPTTEDTATYFCARYGGNSAYYAFSLWGQGTLVTVSS
VL: AVVLTQTPSPVSAAVGGTVTINCQSSQSVYNNNYLAWYQQKPGQPPKLLIYGASNLASGVPSRFKGSGSGTQFTLTISEVQCDDAATYYCQGYYNGVIFVFGGGTEVVVK
B8: clone 36 rabbit anti-IL-6R antibody (antibody, V domains shown)
VH: B7 VH with I26F, D27S, N30S, S50T, S51T, T53S, S54T, T84I
VL: QVLTQTASSVSAAVGGTVTISCQSSQSVYNNNYLAWFQQKPGQPPKLLIYGASNLASGVPSRFKGSGSGTQFTLTISDLECDNAATYYCQGYYNGVIFVFGGGTEVVVK
B9: humanized clone #36 anti-IL-6R antibody (antibody, human IgG1, kappa, V domains shown)
VH: EVQLVESGGGLVQPGGSLRLSCAVSGFSLSSYYMSWVRQAPGKGLEWIGITTTSTNTFYASWAKGRFTISKDSSKNTVYLQMNSPRAEDTAVYFCARYGGNSAYYAFSLWGQGTLVTVSS
VL: DIQMTQSPSSLSASVGDRVTISCQSSQSVYNNNYLAWFQQKPGKPPKLLIYGASNLASGVPSRFSGSGSGTQFTLTISSLQPEDVATYYCQGYYNGVIFVFGGGTKVEIKR
notes: Humanized VH cloned into human IgG1 CH vector, humanized VK into human CK vector; also called Humanized 36; humanized 36
B10: humanized clone #51 anti-IL-6R antibody (antibody, human IgG1, kappa, V domains shown)
VH: EVQLVESGGGLVQPGGSLRLSCAASGFDISSYSLQWVRQSPGKGLEYIGFIRPDGSAHYATWAKGRFTISKDSSKNTVYLQMNSLRAEDTAVYFCARDDISSDYFPNLWGPGTLVTVSS
VL: DIQMTQSPSTLSASVGDRVTISCQASESVYNKNNLAWYQQKPGKPPKLLIYDASDLASGVPSRFSGSGSGTQFTLTISSLQPDDFATYYCAGGGSGNVYDFGGGTKVEIKR
notes: Humanized VH cloned into human IgG1 CH vector, humanized VK into human CK vector; also called Humanized 51; humanized 51

The target of the first experiment is T1, IL-6R on human myeloma U266B1 cells. Put plainly: FACS on U266B1 cells.
For the molecule B1, the half-maximal effective concentration (EC50 (read off the curve)) was roughly 0.2 µg/mL.

The next experiment has the same target. As to the kind of experiment: cell-based or functional assay.
Take B1: the “TF-1 proliferation IC50” value is 0.02 µg/mL.
For B2, the “TF-1 proliferation IC50” value was 0.03 µg/mL.
B3: the “TF-1 proliferation IC50” value is 0.02 µg/mL.
Consider B4, for which the “TF-1 proliferation IC50” value was 0.03 µg/mL.
Same read-out and setting: in the case of B5 it was 0.09 µg/mL; in that of B6, 0.07 µg/mL; in that of B7, 0.11 µg/mL.
Take B8: the “TF-1 proliferation IC50” value worked out at 0.04 µg/mL.

The target of another experiment is T2, recombinant human IL-6R-extracellular …. Put plainly: receptor-ligand ELISA, blocking of IL-6 binding to IL-6R. (In general: ELISA stands for enzyme-linked immunosorbent assay.)
As for B1, the IC50 was determined as 0.8 µg/mL.
The same measure, in the same setting: in the case of B2 it was 0.34 µg/mL.
Regarding B3, the IC50 came out at 1.36 µg/mL.
As for B4, the 50% inhibitory concentration (IC50) was 0.38 µg/mL.
In the case of B5, the IC50 was found to be 0.39 µg/mL.
As to B6, the half-inhibitory concentration (IC50) stood at 0.38 µg/mL.
The same measure, in the same setting: as for B7, the figure is 0.47 µg/mL; as for B8, 0.23 µg/mL.

The next experiment has the same target. Put plainly: direct ELISA on IL-6R.
B1: the EC50 was 0.03 µg/mL.
With B2, the EC50 is 0.04 µg/mL.
For the molecule B3, the half-maximal effective concentration (EC50) was 0.02 µg/mL.
For the molecule B4, the EC50 was 0.04 µg/mL.
Take B5: the EC50 stood at 0.05 µg/mL.
For B6, the EC50 stood at 0.07 µg/mL.
With B7, the EC50 amounted to 0.04 µg/mL.
Consider B8, for which the 50% effective concentration (EC50) was found to be 0.02 µg/mL.

The target is the same in the next experiment. As to the kind of experiment: receptor-ligand ELISA: blocking of IL-6 binding to IL-6R.
With B1, the “IC50 (read off the curve)” value was roughly 0.3 µg/mL.
Consider B9, for which the “IC50 (read off the curve)” value is roughly 0.2 µg/mL.
On the same count and under the same terms, as for B8, the figure is roughly 0.2 µg/mL.

Another experiment has as its target T1, IL-6R on human myeloma U266B1 cells. Put plainly: cell-based or functional assay. The source holds these as a separate data set.
As to B8, the “inhibition of STAT3 phosphorylation, fold as compared to tocilizumab (hPM-1)” value was greater than 10 fold.

The target is the same in another experiment. Put plainly: FACS binding to IL-6R on U266B1 cells. In general terms: Flow cytometry measures light scatter and fluorescence of single cells or particles in a stream.
Take B1: the response was half-maximal at 0.164 µg/mL (EC50).
Same read-out and setting: as for B10, the figure is 0.356 µg/mL; as for B9, 0.145 µg/mL; as for B8, 0.0776 µg/mL.

For the next experiment the target is unchanged. As to the kind of experiment: FACS binding to IL-6R on U266B1 cells. This is another data set of the same source.
B1 displayed a 50% effective concentration (EC50) of 0.0687 µg/mL.
B2 had an EC50 of 0.0961 µg/mL.
Molecule B3 registered a 50% effective concentration (EC50) of 0.0573 µg/mL.
In turn, B4 registered a 50% effective concentration (EC50) of 0.0261 µg/mL.
Still for that read-out and setting: in the case of B5 it was 0.0331 µg/mL.
B6: the 50% effective concentration (EC50) came out at 0.0263 µg/mL.
The same measure, in the same setting: in the case of B7 it was 0.0326 µg/mL; in that of B8, 0.0203 µg/mL.

A further experiment shares this target. As to the kind of experiment: cell-based or functional assay. This is another data set of the same source.
Consider B1, for which the “TF-1 proliferation IC50” value turned out to be 0.154 µg/mL.
In the case of B10, the “TF-1 proliferation IC50” value was 1.06 µg/mL.
For the molecule B9, the “TF-1 proliferation IC50” value came out at 0.181 µg/mL.
Consider B8, for which the “TF-1 proliferation IC50” value was 0.163 µg/mL.

The next experiment deals with IL-6R on TF-1 cells (Homo sapiens). Put plainly: cell-based or functional assay.
Consider B8, for which the “IC50 (read off the curve), IL-6 mediated TF-1 proliferation” value is roughly 0.1 µg/mL.

The target in the next experiment is T2, recombinant human IL-6R-extracellular …. As to the kind of experiment: SPR. In general terms: Surface plasmon resonance follows binding to a sensor surface in real time, without labels.
Take B1: the dissociation constant (Kd) was determined as 1170 pM, the koff is 0.000463 s⁻¹ and the association rate constant (kon) stood at 393000 M⁻¹ s⁻¹.
B10: the equilibrium dissociation constant (Kd) is 1290 pM, the koff came out at 0.0004 s⁻¹ and the kon stood at 311000 M⁻¹ s⁻¹.
Regarding B9, the Kd amounted to 526 pM, the koff stood at 0.00031 s⁻¹ and the on-rate constant (kon) is 589000 M⁻¹ s⁻¹.
For B4, in that order: 523 pM, 0.000279 s⁻¹ and 533000 M⁻¹ s⁻¹.
With B8, the dissociation constant (Kd) is 635 pM, the off-rate constant (koff) was found to be 0.000342 s⁻¹ and the kon came out at 538000 M⁻¹ s⁻¹.

The target is the same in the next experiment. As to the kind of experiment: receptor-ligand ELISA, blocking of IL-6 binding to IL-6R. This is another data set of the same source.
For B1, the IC50 was 0.288 µg/mL.
As to B10, the concentration for half-maximal inhibition (IC50) turned out to be 0.26 µg/mL.
As to B9, the IC50 was found to be 0.39 µg/mL.
In the case of B8, the half-maximal inhibitory concentration (IC50) worked out at 0.235 µg/mL.

The target is the same in another experiment. Put plainly: receptor-ligand ELISA, reference Tocilizumab.
As to B9, the “fold potency against Tocilizumab in ligand-receptor binding assays” value came out at 6 fold.

The target is the same in another experiment. Put plainly: direct ELISA on IL-6R. The source holds these as a separate data set.
Take B1: the concentration for a half-maximal effect (EC50) is roughly 0.03 µg/mL.
With B10, the concentration giving a half-maximal response (EC50) came out at 0.0169 µg/mL.
Take B9: the EC50 worked out at 0.0216 µg/mL.
B8: the 50% effective concentration (EC50) was found to be 0.0595 µg/mL.

As a reminder, the EC50 (read off the curve) is the midpoint of the concentration-response curve. A word on the IC50: it is the concentration that inhibits the measured activity by half. A word on the EC50: it is the midpoint of the concentration-response curve. As usually defined, the Kd is the equilibrium constant for the complex coming apart. In general, koff refers to the first-order rate constant of dissociation. By kon is commonly meant the second-order rate constant of association.
